# Numbered stars: 1 amine (or outer) side, 2 acyl side, 3 side chain; on linkers, the order of the positions; unused ones are H or OH. Bridge positions count the residues as written; N and C are the ends. * marks the point of attachment. C20 diacid = O=C(O)CCCCCCCCCCCCCCCCCCC(=O)*; γGlu = O=C(O)[C@H](CCC(=O)[*:2])N[*:1]
# T1: human amylin receptor (human, UniProt P30988 25-474; O60896 24-148, limits assumed)
# T1 construct: whole, on cells; Used as cell membranes prepared from the Amylin 3(a)/CRE-luc BHK cells (Assay V); also called hAmylin-R; hAmylinR
# T1 sequence (looked up) 1: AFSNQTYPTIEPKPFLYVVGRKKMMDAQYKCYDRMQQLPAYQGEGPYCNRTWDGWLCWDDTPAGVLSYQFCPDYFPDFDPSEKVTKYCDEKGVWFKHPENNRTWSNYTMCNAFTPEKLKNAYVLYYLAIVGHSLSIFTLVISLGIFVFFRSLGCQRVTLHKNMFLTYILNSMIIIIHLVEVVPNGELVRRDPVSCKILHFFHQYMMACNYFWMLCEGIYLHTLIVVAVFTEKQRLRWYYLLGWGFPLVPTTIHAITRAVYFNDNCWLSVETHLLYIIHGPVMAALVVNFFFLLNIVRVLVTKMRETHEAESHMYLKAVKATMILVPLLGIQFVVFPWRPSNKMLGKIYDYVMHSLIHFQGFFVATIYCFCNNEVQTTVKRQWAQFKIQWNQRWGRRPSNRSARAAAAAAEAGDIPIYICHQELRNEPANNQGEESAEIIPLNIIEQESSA
# T1 sequence (looked up) 2: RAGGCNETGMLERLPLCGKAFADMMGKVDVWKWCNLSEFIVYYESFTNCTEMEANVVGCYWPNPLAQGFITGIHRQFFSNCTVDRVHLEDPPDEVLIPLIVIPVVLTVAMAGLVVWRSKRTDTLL
# B1: N^α1-[(4S)-4-carboxy-4-(19-carboxynonadecanoylamino)butanoyl]-[Arg17,Pro21,Pro27,Arg34]-h-amylin (peptide)
# peptide: KCNTATCATQRLANFLRHSSPNFGAIPSSTNVGRNTY
# modifications: C20 diacid-gGlu on alpha amino group of the N-terminal residue; Cys2-Cys7 disulfide and C-terminal amide as in h-amylin
# notes: also called compound 39
# B2: N^α1-[(4S)-4-carboxy-4-(19-carboxynonadecanoylamino)butanoyl]-[Arg17,Pro21,Pro27,Glu35]-h-amylin (peptide)
# peptide: KCNTATCATQRLANFLRHSSPNFGAIPSSTNVGSETY
# modifications: C20 diacid-gGlu on alpha amino group of the N-terminal residue; Cys2-Cys7 disulfide and C-terminal amide as in h-amylin
# notes: also called compound 23
# B3: N^α1-[(4S)-4-carboxy-4-(19-carboxynonadecanoylamino)butanoyl]-[Arg17,Pro21,Pro27,His34]-h-amylin (peptide)
# peptide: KCNTATCATQRLANFLRHSSPNFGAIPSSTNVGHNTY
# modifications: C20 diacid-gGlu on alpha amino group of the N-terminal residue; Cys2-Cys7 disulfide and C-terminal amide as in h-amylin
# notes: also called compound 40
# B4: N^α1-[(4S)-4-carboxy-4-(19-carboxynonadecanoylamino)butanoyl]-[Arg17,Pro21,Pro27,Pro31,Glu35]-h-amylin (peptide)
# peptide: {C20 diacid-γGlu}-KCNTATCATQRLANFLRHSSPNFGAIPSSTPVGSETY-NH2
# modifications: disulfide 2-7
# SMILES: CC[C@H](C)[C@H](NC(=O)[C@H](C)NC(=O)CNC(=O)[C@H](Cc1ccccc1)NC(=O)[C@H](CC(N)=O)NC(=O)[C@@H]1CCCN1C(=O)[C@H](CO)NC(=O)[C@H](CO)NC(=O)[C@H](Cc1c[nH]cn1)NC(=O)[C@H](CCCNC(=N)N)NC(=O)[C@H](CC(C)C)NC(=O)[C@H](Cc1ccccc1)NC(=O)[C@H](CC(N)=O)NC(=O)[C@H](C)NC(=O)[C@H](CC(C)C)NC(=O)[C@H](CCCNC(=N)N)NC(=O)[C@H](CCC(N)=O)NC(=O)[C@@H](NC(=O)[C@H](C)NC(=O)[C@@H]1CSSC[C@H](NC(=O)[C@H](CCCCN)NC(=O)CC[C@H](NC(=O)CCCCCCCCCCCCCCCCCCC(=O)O)C(=O)O)C(=O)N[C@@H](CC(N)=O)C(=O)N[C@@H]([C@@H](C)O)C(=O)N[C@@H](C)C(=O)N[C@@H]([C@@H](C)O)C(=O)N1)[C@@H](C)O)C(=O)N1CCC[C@H]1C(=O)N[C@@H](CO)C(=O)N[C@@H](CO)C(=O)N[C@H](C(=O)N1CCC[C@H]1C(=O)N[C@H](C(=O)NCC(=O)N[C@@H](CO)C(=O)N[C@@H](CCC(=O)O)C(=O)N[C@H](C(=O)N[C@@H](Cc1ccc(O)cc1)C(N)=O)[C@@H](C)O)C(C)C)[C@@H](C)O
# notes: also called compound 28
# B5: N^α1-[(4S)-4-carboxy-4-(19-carboxynonadecanoylamino)butanoyl]-[Glu14,Arg17,Pro21,Pro27,Arg35]-h-amylin (peptide)
# peptide: {C20 diacid-γGlu}-KCNTATCATQRLAEFLRHSSPNFGAIPSSTNVGSRTY-NH2
# modifications: disulfide 2-7
# SMILES: CC[C@H](C)[C@H](NC(=O)[C@H](C)NC(=O)CNC(=O)[C@H](Cc1ccccc1)NC(=O)[C@H](CC(N)=O)NC(=O)[C@@H]1CCCN1C(=O)[C@H](CO)NC(=O)[C@H](CO)NC(=O)[C@H](Cc1c[nH]cn1)NC(=O)[C@H](CCCNC(=N)N)NC(=O)[C@H](CC(C)C)NC(=O)[C@H](Cc1ccccc1)NC(=O)[C@H](CCC(=O)O)NC(=O)[C@H](C)NC(=O)[C@H](CC(C)C)NC(=O)[C@H](CCCNC(=N)N)NC(=O)[C@H](CCC(N)=O)NC(=O)[C@@H](NC(=O)[C@H](C)NC(=O)[C@@H]1CSSC[C@H](NC(=O)[C@H](CCCCN)NC(=O)CC[C@H](NC(=O)CCCCCCCCCCCCCCCCCCC(=O)O)C(=O)O)C(=O)N[C@@H](CC(N)=O)C(=O)N[C@@H]([C@@H](C)O)C(=O)N[C@@H](C)C(=O)N[C@@H]([C@@H](C)O)C(=O)N1)[C@@H](C)O)C(=O)N1CCC[C@H]1C(=O)N[C@@H](CO)C(=O)N[C@@H](CO)C(=O)N[C@H](C(=O)N[C@@H](CC(N)=O)C(=O)N[C@H](C(=O)NCC(=O)N[C@@H](CO)C(=O)N[C@@H](CCCNC(=N)N)C(=O)N[C@H](C(=O)N[C@@H](Cc1ccc(O)cc1)C(N)=O)[C@@H](C)O)C(C)C)[C@@H](C)O
# notes: also called compound 16
# Biological target: T1, human amylin receptor
# Test: SPA competition vs 125I-rat amylin, membranes of amylin 3(a) receptor BHK cells (Assay V)
# Protocol: The binding assay was performed using scintillation proximity assay (SPA) beads (RPNQ0001) from PerkinElmer and cell membranes from the Amylin 3(a)/CRE-luc cells (as described in Assay (II)) were used. Membranes were prepared in the following way; the cells were rinsed with PBS and incubated with Versene for approximately 5 min before harvesting. The cells were flushed with PBS and the cell-suspension was centrifuged for 5 min at 1000 rpm. Cells were homogenized (ultrathurrax) in a buffer containing 20 mM Na-HEPES and 10 mM EDTA (pH 7.4) and centrifuged at 20.000 rpm for 15 min. The resulting pellet was resuspended, homogenized and centrifuged (20.000 rpm, 15 min) in a buffer containing 20 mM Na-HEPES and 0.1 mM EDTA (pH 7.4, buffer 2). The resulting pellet was resuspended in buffer 2 and protein concentration was measured (BCA protein Assay, Pierce). The homogenate was kept cold during the whole procedure. The membranes were kept at −80° C. until use. The assay was performed in a 384 well Optiplate (PerkinElmer) in a total volume of 40 ul. Membranes were mixed with SPA beads. Final concentration of membranes 35 ng/μL final and SPA beads was 0.05 mg/well. Test-compounds were dissolved in DMSO and further diluted in assay buffer (50 mM Hepes, pH 7.4, 1 mM CaCl2, 5 mM MgCl₂, 0.1% OA and 0.02% Tween20). […] The final mixture was incubated with shaking at 400 rpm for 120 min at 25° C. prior to centrifugation (1500 rpm, 10 min). Samples were analyzed on TopCounter™ (Packard). The IC₅₀ was calculated using (one site binding competition analysis) GraphPad Prism5 as a measure of receptor affinity.
row,Binder,IC50
1,B1,0.665 nM
2,B2,0.871 nM
3,B3,0.549 nM
4,B4,0.61 nM
5,B5,0.894 nM
